# T1: TNFR1 (Homo sapiens, UniProt P19438)
# T1 chain: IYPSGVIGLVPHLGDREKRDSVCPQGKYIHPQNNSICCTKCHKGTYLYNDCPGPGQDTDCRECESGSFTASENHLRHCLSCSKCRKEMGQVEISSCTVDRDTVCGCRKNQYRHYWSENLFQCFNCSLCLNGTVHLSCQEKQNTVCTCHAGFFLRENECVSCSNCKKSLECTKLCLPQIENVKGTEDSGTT
# Biological target: T1, TNFR1
# Assay: yeast display SC50
row,Binder,apparent Kd (screen)
1,A80E (designed binder) MTLQELLREEALRRAEAEAFRYALELLAEKFPEQKEYLLDLAEEIESQIRSLSGVDVEDVRKFLDKEWAWVKELLAEHPEELAEVEAARAARLAELRAEVEAKVAA,0.49 nM
2,E10A (designed binder) MTLQELLREAALRRAEAEAFRYALELLAEKFPEQKEYLLDLAEEIESQIRSLSGVDVEDVRKFLDKEWAWVKELLAEHPAELAEVEAARAARLAELRAEVEAKVAA,5.31 nM
3,D40G (designed binder) MTLQELLREEALRRAEAEAFRYALELLAEKFPEQKEYLLGLAEEIESQIRSLSGVDVEDVRKFLDKEWAWVKELLAEHPAELAEVEAARAARLAELRAEVEAKVAA,1.05 nM
4,E25M (designed binder) MTLQELLREEALRRAEAEAFRYALMLLAEKFPEQKEYLLDLAEEIESQIRSLSGVDVEDVRKFLDKEWAWVKELLAEHPAELAEVEAARAARLAELRAEVEAKVAA,0.368 nM
5,L41V (designed binder) MTLQELLREEALRRAEAEAFRYALELLAEKFPEQKEYLLDVAEEIESQIRSLSGVDVEDVRKFLDKEWAWVKELLAEHPAELAEVEAARAARLAELRAEVEAKVAA,0.869 nM
6,L52G (designed binder) MTLQELLREEALRRAEAEAFRYALELLAEKFPEQKEYLLDLAEEIESQIRSGSGVDVEDVRKFLDKEWAWVKELLAEHPAELAEVEAARAARLAELRAEVEAKVAA,1.27 nM
7,R21S (designed binder) MTLQELLREEALRRAEAEAFSYALELLAEKFPEQKEYLLDLAEEIESQIRSLSGVDVEDVRKFLDKEWAWVKELLAEHPAELAEVEAARAARLAELRAEVEAKVAA,0.539 nM
8,R92Q (designed binder) MTLQELLREEALRRAEAEAFRYALELLAEKFPEQKEYLLDLAEEIESQIRSLSGVDVEDVRKFLDKEWAWVKELLAEHPAELAEVEAARAAQLAELRAEVEAKVAA,0.304 nM
9,R92I (designed binder) MTLQELLREEALRRAEAEAFRYALELLAEKFPEQKEYLLDLAEEIESQIRSLSGVDVEDVRKFLDKEWAWVKELLAEHPAELAEVEAARAAILAELRAEVEAKVAA,0.49 nM
10,M1E (designed binder) ETLQELLREEALRRAEAEAFRYALELLAEKFPEQKEYLLDLAEEIESQIRSLSGVDVEDVRKFLDKEWAWVKELLAEHPAELAEVEAARAARLAELRAEVEAKVAA,0.593 nM
11,A17W (designed binder) MTLQELLREEALRRAEWEAFRYALELLAEKFPEQKEYLLDLAEEIESQIRSLSGVDVEDVRKFLDKEWAWVKELLAEHPAELAEVEAARAARLAELRAEVEAKVAA,0.539 nM
12,E84Y (designed binder) MTLQELLREEALRRAEAEAFRYALELLAEKFPEQKEYLLDLAEEIESQIRSLSGVDVEDVRKFLDKEWAWVKELLAEHPAELAYVEAARAARLAELRAEVEAKVAA,0.718 nM
13,E16G (designed binder) MTLQELLREEALRRAGAEAFRYALELLAEKFPEQKEYLLDLAEEIESQIRSLSGVDVEDVRKFLDKEWAWVKELLAEHPAELAEVEAARAARLAELRAEVEAKVAA,0.593 nM
14,E86C (designed binder) MTLQELLREEALRRAEAEAFRYALELLAEKFPEQKEYLLDLAEEIESQIRSLSGVDVEDVRKFLDKEWAWVKELLAEHPAELAEVCAARAARLAELRAEVEAKVAA,0.653 nM
15,L74T (designed binder) MTLQELLREEALRRAEAEAFRYALELLAEKFPEQKEYLLDLAEEIESQIRSLSGVDVEDVRKFLDKEWAWVKETLAEHPAELAEVEAARAARLAELRAEVEAKVAA,2.48 nM

# Next, values leading:
row,apparent Kd (screen),Binder
1,1.4 nM,P32M (designed binder) MTLQELLREEALRRAEAEAFRYALELLAEKFMEQKEYLLDLAEEIESQIRSLSGVDVEDVRKFLDKEWAWVKELLAEHPAELAEVEAARAARLAELRAEVEAKVAA
2,0.718 nM,E73I (designed binder) MTLQELLREEALRRAEAEAFRYALELLAEKFPEQKEYLLDLAEEIESQIRSLSGVDVEDVRKFLDKEWAWVKILLAEHPAELAEVEAARAARLAELRAEVEAKVAA
3,0.718 nM,P79C (designed binder) MTLQELLREEALRRAEAEAFRYALELLAEKFPEQKEYLLDLAEEIESQIRSLSGVDVEDVRKFLDKEWAWVKELLAEHCAELAEVEAARAARLAELRAEVEAKVAA
4,0.593 nM,E33W (designed binder) MTLQELLREEALRRAEAEAFRYALELLAEKFPWQKEYLLDLAEEIESQIRSLSGVDVEDVRKFLDKEWAWVKELLAEHPAELAEVEAARAARLAELRAEVEAKVAA
5,0.49 nM,Q34P (designed binder) MTLQELLREEALRRAEAEAFRYALELLAEKFPEPKEYLLDLAEEIESQIRSLSGVDVEDVRKFLDKEWAWVKELLAEHPAELAEVEAARAARLAELRAEVEAKVAA
6,0.49 nM,V85M (designed binder) MTLQELLREEALRRAEAEAFRYALELLAEKFPEQKEYLLDLAEEIESQIRSLSGVDVEDVRKFLDKEWAWVKELLAEHPAELAEMEAARAARLAELRAEVEAKVAA
7,0.593 nM,E77M (designed binder) MTLQELLREEALRRAEAEAFRYALELLAEKFPEQKEYLLDLAEEIESQIRSLSGVDVEDVRKFLDKEWAWVKELLAMHPAELAEVEAARAARLAELRAEVEAKVAA
8,0.335 nM,R13Y (designed binder) MTLQELLREEALYRAEAEAFRYALELLAEKFPEQKEYLLDLAEEIESQIRSLSGVDVEDVRKFLDKEWAWVKELLAEHPAELAEVEAARAARLAELRAEVEAKVAA
9,0.653 nM,Q48H (designed binder) MTLQELLREEALRRAEAEAFRYALELLAEKFPEQKEYLLDLAEEIESHIRSLSGVDVEDVRKFLDKEWAWVKELLAEHPAELAEVEAARAARLAELRAEVEAKVAA
10,0.539 nM,R97M (designed binder) MTLQELLREEALRRAEAEAFRYALELLAEKFPEQKEYLLDLAEEIESQIRSLSGVDVEDVRKFLDKEWAWVKELLAEHPAELAEVEAARAARLAELMAEVEAKVAA
11,0.49 nM,E36M (designed binder) MTLQELLREEALRRAEAEAFRYALELLAEKFPEQKMYLLDLAEEIESQIRSLSGVDVEDVRKFLDKEWAWVKELLAEHPAELAEVEAARAARLAELRAEVEAKVAA
12,0.446 nM,A76F (designed binder) MTLQELLREEALRRAEAEAFRYALELLAEKFPEQKEYLLDLAEEIESQIRSLSGVDVEDVRKFLDKEWAWVKELLFEHPAELAEVEAARAARLAELRAEVEAKVAA
13,24.4 nM,L52D (designed binder) MTLQELLREEALRRAEAEAFRYALELLAEKFPEQKEYLLDLAEEIESQIRSDSGVDVEDVRKFLDKEWAWVKELLAEHPAELAEVEAARAARLAELRAEVEAKVAA
14,13.8 nM,E44S (designed binder) MTLQELLREEALRRAEAEAFRYALELLAEKFPEQKEYLLDLAESIESQIRSLSGVDVEDVRKFLDKEWAWVKELLAEHPAELAEVEAARAARLAELRAEVEAKVAA
15,0.956 nM,E101S (designed binder) MTLQELLREEALRRAEAEAFRYALELLAEKFPEQKEYLLDLAEEIESQIRSLSGVDVEDVRKFLDKEWAWVKELLAEHPAELAEVEAARAARLAELRAEVSAKVAA
16,0.49 nM,E33Q (designed binder) MTLQELLREEALRRAEAEAFRYALELLAEKFPQQKEYLLDLAEEIESQIRSLSGVDVEDVRKFLDKEWAWVKELLAEHPAELAEVEAARAARLAELRAEVEAKVAA
17,0.593 nM,A90V (designed binder) MTLQELLREEALRRAEAEAFRYALELLAEKFPEQKEYLLDLAEEIESQIRSLSGVDVEDVRKFLDKEWAWVKELLAEHPAELAEVEAARVARLAELRAEVEAKVAA
18,0.539 nM,K62S (designed binder) MTLQELLREEALRRAEAEAFRYALELLAEKFPEQKEYLLDLAEEIESQIRSLSGVDVEDVRSFLDKEWAWVKELLAEHPAELAEVEAARAARLAELRAEVEAKVAA
19,0.539 nM,A98T (designed binder) MTLQELLREEALRRAEAEAFRYALELLAEKFPEQKEYLLDLAEEIESQIRSLSGVDVEDVRKFLDKEWAWVKELLAEHPAELAEVEAARAARLAELRTEVEAKVAA
20,0.446 nM,V60S (designed binder) MTLQELLREEALRRAEAEAFRYALELLAEKFPEQKEYLLDLAEEIESQIRSLSGVDVEDSRKFLDKEWAWVKELLAEHPAELAEVEAARAARLAELRAEVEAKVAA
